These results are taken from patent US20230322893A1 (BPGENE, published 2023).

To fix the notation:
B1: SV4 (designed binder)
chain: MEEELQIIQPDLSVSVAAGESAILHCTITSLFPVGPIQWFRGAGPARVLIYNQRQGPFPRVTTVSETTKRENMDFSISISNITPADAGTYYCIKFRKGSPDTEFLSGAGTELSVRAKPS
notes: also called SV4 protein
B2: SV4-DSPE (other)
chain: B1 chain
notes: also called DSPE-SV4; DSPE-PEG2000-SV4
B3: SV4-iLP (other)
chain: B1 chain
notes: also called LPD-SV4; SV4-conjugated iLP

The target of the assay is recombinant CD47 protein (UniProt Q08722 19-139). Kind of assay: SPR; recombinant CD47 coupled to CM5 chip (250 RU); 1:1 model, global fit.
Sequence of recombinant CD47 protein (Q08722 19-139 limits assumed): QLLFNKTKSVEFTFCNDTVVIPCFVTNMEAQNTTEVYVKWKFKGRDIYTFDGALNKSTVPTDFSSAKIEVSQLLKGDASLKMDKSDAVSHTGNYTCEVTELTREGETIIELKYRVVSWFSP
Description: Specifically, the recombinant CD47 protein was conjugated to the surface of the CM5 chip by a target SPR reaction of 250 RU through an EDC-NHS reaction to be used, and for HBS-P, the sensogram obtained through a process of association for 3 minutes and dissociation for 10 minutes at a flow rate of 30 µL/minutes was analyzed with the BiaEvaluation software using a 1:1 binding model and global fitting.
Regarding B1, the Kd was determined as 1.67 nM, the koff worked out at 0.000275 s⁻¹ and the kon was 164000 M⁻¹ s⁻¹.

As for B2, the equilibrium dissociation constant (Kd) turned out to be 1.13 nM, the koff worked out at 0.000256 s⁻¹ and the kon was determined as 227000 M⁻¹ s⁻¹.

B3: the Kd worked out at 1.27 nM, the koff came to 0.000395 s⁻¹ and the kon amounted to 312000 M⁻¹ s⁻¹.
